For assay [1], the target named is T1, human SLAMF7 (human, UniProt Q9NQ25 23-335).
T1 construct: whole, on cells; Cell surface antigen targeted on human MM cell lines in flow cytometry; also called CS-1
In words: flow cytometry on MM cell lines U-266, NCI-H929, RPMI-8226; DVD-IgG1 at 20 nM, Alexa Fluor 647 anti-human Fc; curve assigned by grey tone only. Here is the method:
(§1) Flow cytometry: In a V-bottom 96-well plate (Corning), 100,000 cells per well were dispensed. The cells were washed with 200 μL flow cytometry buffer (PBS, 2% (v/v) FBS, 0.01% (w/v) NaN₃, pH 7.4), incubated with DVD-IgG1 or IgG1 (50 μL of a 20 nM solution in PBS) for 30 min on ice, washed with 200 μL ice-cold flow cytometry buffer, and stained with Alexa Fluor 647 conjugated polyclonal (Fab′)₂ donkey anti-human Fc (Jackson ImmunoResearch Laboratories) for 20 min on ice. After washing twice with 200 μL ice-cold flow cytometry buffer, the cells were analyzed using a Canto II Flow Cytometer (Becton-Dickinson). Data were analyzed using FlowJo software (Tree Star).
For orientation: In flow cytometry, cells or beads pass a laser one at a time.

Assay [2] concerns the target T2, human B-cell maturation antigen (BCMA) (human, UniProt Q02223 1-184).
T2 construct: whole, on cells; Cell surface antigen targeted on human MM cell lines in flow cytometry
T2 sequence (looked up): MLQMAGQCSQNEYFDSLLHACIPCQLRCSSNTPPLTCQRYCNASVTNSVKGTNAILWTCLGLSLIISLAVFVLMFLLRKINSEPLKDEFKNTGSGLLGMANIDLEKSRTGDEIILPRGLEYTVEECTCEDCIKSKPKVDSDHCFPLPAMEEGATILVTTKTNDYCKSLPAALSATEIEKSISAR
In words: flow cytometry on cells; cell line and concentration not printed on the sheet (methods paragraph 609). Here is the method: Flow cytometry: During the process of flow cytometry, 100,000 cells were dispensed in each well of a V-bottom 96-well plate (Corning) and washed with 150 μL of flow cytometry buffer (PBS, 2% (v/v) FBS, 0.01% (w/v) NaN₃, pH 7.4). Subsequently, the cells were incubated with the antibodies (200 nM in 50 μL PBS) for 1 h on ice, followed by 3 rounds of washing (200 μL flow buffer). Finally, the cells were stained with R-Phycoerythrin AffiniPure F(ab′)₂ Fragment Goat Anti-Human IgG, F(ab′)₂ fragment specific (for Fabs and IgG1 or IgG1 ARCs), or R-Phycoerythrin AffiniPure F(ab′)₂ Fragment Donkey Anti-Human IgM, Fc5μ fragment specific (IgM or IgM ARCs) purchased from Jackson ImmunoResearch Laboratories for 30 min on ice. After 3 rounds of washing, the cells were passed through a BD FACSCanto™ II and the data were extracted and analyzed via FlowJo software.

For assay [3], the target named is T3, human CD138 (human, UniProt P18827 23-310).
T3 construct: whole, on cells; Cell surface antigen targeted on human MM cell lines in flow cytometry
T3 sequence (looked up): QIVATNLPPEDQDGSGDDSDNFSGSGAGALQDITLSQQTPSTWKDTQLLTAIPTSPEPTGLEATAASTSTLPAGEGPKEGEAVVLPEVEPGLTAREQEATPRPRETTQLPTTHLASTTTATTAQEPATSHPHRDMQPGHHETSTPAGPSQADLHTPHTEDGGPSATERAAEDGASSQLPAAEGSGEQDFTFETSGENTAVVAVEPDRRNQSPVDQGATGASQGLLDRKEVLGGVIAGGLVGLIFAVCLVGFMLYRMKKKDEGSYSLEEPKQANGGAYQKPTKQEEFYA
In words: flow cytometry on MM cell lines U-266, NCI-H929, RPMI-8226; DVD-IgG1 at 20 nM, Alexa Fluor 647 anti-human Fc. Here is the method:
as §1

The target in assay [4] is T1, human SLAMF7. In words: flow cytometry on MM cell lines U-266, NCI-H929, RPMI-8226; negative control. Here is the method:
as §1

The target of assay [5] is T3, human CD138. Described as above. As to the method:
as §1

B1: Anti-SLAMF7 DVD-IgG1 (1) (antibody)
light: DIQMTQSPSSLSASVGDRVTITCKASQDVGIAVAWYQQKPGKVPKLLIYWASTRHTGVPDRFSGSGSGTDFTLTISSLQPEDVATYYCQQYSSYPYTFGQGTKVEIKASTKGPELQMTQSPSSLSASVGDRVTITCRSSQSLLHTYGSPYLNWYLQKPGQSPKLLIYKVSNRFSGVPSRFSGSGSGTDFTLTISSLQPEDFAVYFCSQGTHLPYTFGGGTKVEIKRTVAAPSVFIFPPSDEQLKSGTASVVCLLNNFYPREAKVQWKVDNALQSGNSQESVTEQDSKDSTYSLSSTLTLSKADYEKHKVYACEVTHQGLSSPVTKSFNRGEC
heavy: not shown
notes: Dual variable domain IgG1: outer anti-SLAMF7 Fv, ASTKGP spacer, inner h38C2 Fv, human IgG1 and kappa constant domains
As for B1, in the assay with human SLAMF7 [1], the binding result was “binds”.

B2: Anti-BCMA DVD-IgG1 (2) (antibody)
light: DIQMTQSPSSLSASVGDRVTITCSASQDISNYLNWYQQKPGKAPKLLIYYTSNLHSGVPSRFSGSGSGTDFTLTISSLQPEDFATYYCQQYRKLPWTFGQGTKLEIKASTKGPELQMTQSPSSLSASVGDRVTITCRSSQSLLHTYGSPYLNWYLQKPGQSPKLLIYKVSNRFSGVPSRFSGSGSGTDFTLTISSLQPEDFAVYFCSQGTHLPYTFGGGTKVEIKRTVAAPSVFIFPPSDEQLKSGTASVVCLLNNFYPREAKVQWKVDNALQSGNSQESVTEQDSKDSTYSLSSTLTLSKADYEKHKVYACEVTHQGLSSPVTKSFNRGEC
heavy: not shown
notes: Dual variable domain IgG1: outer anti-BCMA Fv, ASTKGP spacer, inner h38C2 Fv, human IgG1 and kappa constant domains
On to B2, for which the binding result in assay [2] is listed as “binds”.

B3: Anti-CD138 DVD-IgG1 (3) (antibody)
light: DIQMTQSTSSLSASLGDRVTISCSASQGINNYLNWYQQKPDGTVELLIYYTSTLQSGVPSRFSGSGSGTDYSLTISNLEPEDIGTYYCQQYSKLPRTFGGGTKLEIKASTKGPELQMTQSPSSLSASVGDRVTITCRSSQSLLHTYGSPYLNWYLQKPGQSPKLLIYKVSNRFSGVPSRFSGSGSGTDFTLTISSLQPEDFAVYFCSQGTHLPYTFGGGTKVEIKRTVAAPSVFIFPPSDEQLKSGTASVVCLLNNFYPREAKVQWKVDNALQSGNSQESVTEQDSKDSTYSLSSTLTLSKADYEKHKVYACEVTHQGLSSPVTKSFNRGEC
heavy: not shown
notes: Dual variable domain IgG1: outer anti-CD138 Fv, ASTKGP spacer, inner h38C2 Fv, human IgG1 and kappa constant domains
Consider B3, for which the binding result with human CD138 [3] is recorded as “binds”.

B4: h38C2 IgG1 (antibody, V domains shown)
VH: EVQLVESGGGLVQPGGSLRLSCAASGFTFSNYWMSWVRQSPEKGLEWVSEIRLRSDNYATHYAESVKGRFTISRDNSKNTLYLQMNSLRAEDTGIYYCKTYFYSFSYWGQGTLVTVSS
VL: ELQMTQSPSSLSASVGDRVTITCRSSQSLLHTYGSPYLNWYLQKPGQSPKLLIYKVSNRFSGVPSRFSGSGSGTDFTLTISSLQPEDFAVYFCSQGTHLPYTFGGGTKVEIKR
notes: also called humanized 38C2 IgG1
On to B4, for which the binding result in the assay with human SLAMF7 [4] and with human CD138 [5] was “no binding (tested: 20 nM (single concentration))” each time.

Source of the values: patent publication US20230049529A1 (ALNYLAM PHARMACEUTICALS, published 2023).
